Results as given in publication PMC11162469, “Discovery of RXFP2 genetic association in resistant hypertensive men and RXFP2 antagonists for the treatment of resistant hypertension” (Scientific Reports, 2024).

How the values were obtained:
rat RXFP2 = rat RXFP2 (Rattus norvegicus, UniProt F7EMH8); test: INSL3-stimulated CYP11B1 mRNA expression in H295R stably expressing rat RXFP2; type: cell-based; design: expressed in transfected cells; conditions: INSL3 EC80 (3.5 nM), 48 h, qPCR; N = 2
Procedure: RXFP2 antagonists were added to H295R-rRXFP2 before addition of INSL3 EC80 (3.5 nM) for 48 h, whereupon the cells and supernatants were collected. CYP11B1 and CYP11B2 mRNA were determined by qPCR and the RXFP2 blocker potencies were calculated (Fig. 5a). Fifteen antibodies have IC50s < 50 nM, and three of the top antibodies (1F2, 4G6, and 2D4) were selected for evaluation in steroid hormone secretion assays by ELISA.
Data entered as XY table, with x = [Inhibitor] (nM) and y = CYP11B2 or CYP11B1 fold change.

human LDLa-linker = target: T1, human LDLa-linker (Homo sapiens, UniProt Q8WXD0); test: Biacore S200 binding to human LDLa-linker protein
T1 construct: human LDLa linker [huRXFP2-LDLa-linker(38-105)-ratFc-8XHIS]; enterokinase cleavage site (C); rat Fc (C, cleaved yes); 8xHis (C, cleaved yes); made in house; host or cells: Expi293
Procedure: Goat anti Rat Fc gamma fragment specific (Jackson Immunoresearch, 112-005-071) was immobilized at 30 µg/mL to a Series S CM5 chip (Cytiva Life Sciences). In three separate runs, twenty different purified recombinant rat anti RXFP2 antibodies were then captured to the CM5 chip at a concentration of 5 µg/mL. The antibody panel was captured; rat LDLa-linker or human LDLa-linker protein was flowed as analyte at the following concentrations: 20 nM, 10 nM, 5 nM, 2.5 nM, […], and 0 nM. Antibody kinetics were evaluated using a 1:1 fit model (Biacore S200).

[1] = Pharmacokinetic study of RXFP2 mAbs in rat; type: in vivo, Wistar Han rats
Procedure: For the pharmacokinetic study of RXFP2 mAbs in rat, 1G1, 2D4, 4B1, 4G6, 1F2, and 3F3 were prepared in phosphate buffered saline (0.100 mg/mL) with low endotoxin (≤ 0.76 EU/mL). Adult male Wistar Han rats (n = 3/mAb) were administered 1 mg/kg subcutaneously (10 mL/kg). Blood samples (100 µL) were collected in EDTA containing tubes at 0.25, 3, 6 24, 48, 96, 168 (day 7), 336 (day 14), 504 (day 21), and 672 (day 28) hours post dose, immediately centrifuged (6100 rpm), and 50 µL plasma stored at − 80 °C until assay. Rats maintained health throughout the study and were anesthetized (isoflurane to effect) and euthanized on day 28.
Frozen rat plasma samples were thawed and analyzed using a qualified analytical method based on sample dilution, followed by Electrochemiluminescence immunoassay analysis. The lower limit of quantification (LLQ) was 0.1 µg/mL using a 10 µL aliquot of 51-fold diluted rat plasma with a higher limit of quantification (HLQ) of 10 µg/mL. RXFP2 mAbs were captured with LDLa protein and detected with sulfo-tag labeled mouse anti-rat IgG2b. The computer systems that were used to acquire and quantify data included Gyrolab Workstation Version 8.1.5 and Watson LIMS version 7.6.1. Rat pharmacokinetic parameters were calculated by non-compartmental analysis (NCA) analysis using WinNonlin Phoenix 64 (version 8.3). Values are reported in mean ± standard deviation.

[2] = target: T2, human LDLa peptide (UnitProt Q8WXD0 43-80) (Homo sapiens, UniProt Q8WXD0); test: ELISA binding to linker-less human LDLa peptide
T2 construct: human LDLa peptide (Q8WXD0 43-80)
Procedure: The human/rat RXFP2 cross reactive antibodies belong to two epitope bins and were further evaluated for binding to the linker-less human LDLa peptide (UnitProt Q8WXD0 43-80) by ELISA. […] The different domain requirements for binding are consistent with results from the binning experiment showing 4F6 and 4G6 are in a separate bin from 4B1.
Rat LDLa-linker_ratFc, human LDLa-linker_ratFc, or ratFc, or human LDLa peptide (Q8WXD0 43-80) was diluted to 1 µg/mL in 1X PBS and immobilized in separate 96-well ELISA plates (Nunc Maxisorp), 50 µL/well. The plates were then incubated overnight at 4 °C. The following day the plates were washed three times with ELISA wash buffer (PBS + 0.05% Tween-20) and then blocked with ELISA blocking buffer (PBS + 0.05% Tween-20 + 1% BSA), 200 µL/well, and incubated 1 h at room temperature on a shaker. Plates were again washed three times followed by the addition of the primary antibodies. Hybridoma supernatant was added neat, 50 µL/well; mouse serum was added 1:100 and then serially diluted 1:2 for 8 points, 50 µL/well. Purified antibodies were added 5 µg/mL in the first well and serially diluted down the plate 1:2 for 8 points, 50 µL/well. Primary antibody was incubated for 1 h at room temperature on a shaker. […] Stopping solution (2N Sulfuric acid) was added to the plates 50 µL/well, and then read on a plate reader (SpectraMax Molecular Devices) at 450 nm.

[3] = male Wistar Han rats, 1 mg/kg s.c., n = 3, mean ± SD

T1 sequence (Q8WXD0 38-105): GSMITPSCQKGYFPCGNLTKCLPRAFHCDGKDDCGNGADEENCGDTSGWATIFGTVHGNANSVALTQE
T2 sequence (Q8WXD0 43-80 limits assumed): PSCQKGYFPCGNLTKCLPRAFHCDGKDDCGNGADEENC
Chain of rat RXFP2 (F7EMH8 20-737): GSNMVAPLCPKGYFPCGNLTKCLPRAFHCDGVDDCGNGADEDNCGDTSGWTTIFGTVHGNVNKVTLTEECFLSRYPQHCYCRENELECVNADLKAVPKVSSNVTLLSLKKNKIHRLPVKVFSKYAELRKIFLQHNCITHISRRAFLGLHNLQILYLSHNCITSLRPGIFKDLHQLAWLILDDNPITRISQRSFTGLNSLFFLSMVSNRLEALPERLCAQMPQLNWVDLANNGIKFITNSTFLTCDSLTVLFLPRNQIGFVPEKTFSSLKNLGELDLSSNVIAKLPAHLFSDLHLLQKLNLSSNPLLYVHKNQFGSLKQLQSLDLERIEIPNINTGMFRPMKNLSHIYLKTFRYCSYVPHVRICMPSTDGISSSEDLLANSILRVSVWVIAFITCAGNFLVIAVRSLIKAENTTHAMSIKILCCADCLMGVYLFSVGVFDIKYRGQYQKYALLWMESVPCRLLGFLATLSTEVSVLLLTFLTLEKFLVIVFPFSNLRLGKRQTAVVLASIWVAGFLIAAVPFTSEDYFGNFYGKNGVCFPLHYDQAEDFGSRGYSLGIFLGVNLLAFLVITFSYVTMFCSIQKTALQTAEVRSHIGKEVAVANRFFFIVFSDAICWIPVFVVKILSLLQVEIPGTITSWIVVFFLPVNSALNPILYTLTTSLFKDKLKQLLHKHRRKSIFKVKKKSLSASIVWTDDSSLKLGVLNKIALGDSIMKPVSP

IC50 (rat RXFP2): 0.33 nM | cross reactivity to the human LDLa-linker (human LDLa-linker): cross reactivity | binding to linker-less human LDLa peptide [2]: bind
B1: 4G6: Human/rat cross-reactive RXFP2 monoclonal antibody, rat IgG2b backbone; binds the LDLa domain (antibody, V domains shown)
VH: EVQLQQSGPELVKPGASVKLSCKASGYTFTSYVMHWVKQKPEQGLEWIGYKNPSNDGIKYNEKFKGKATLTSDKSSNIAYMELFSLTSEDSAVYYCARSDFGSVWAMDYWGQGTSVTVSS
VL: SIVMTQTPKFLLVSAGDRVTITCKASQSVNDDIVWYQQKPGQSPKLLIYYASNRYTGVPDRFTGSGYGTDFTFTISTVQAGDLAVYFCQQDYSSPFTFGSGTKLEIK
half-life, extrapolated values ([1]; Wistar Han rats, 1 mg/kg sc., over 28 days): ≥ 11 days | estimated dose to achieve tenfold higher IC50 HEK-rRXFP2 cAMP activity for approximately 28 days in rat ([1]; from trough concentration, dose-linearity assumed): approximately 30 mg/kg | AUClast [1, 3]: 1350 ± 125 µg·h/mL | Cmax [1, 3]: 4150 ± 1200 ng/mL | Tmax [1, 3]: 9.33 ± 4.04 days
